Laboratory results from the nanobody polyreactivity screen of Harvey et al. (2022).

Experiment: yeast display, Sf9 membrane polyspecificity reagent, FACS + sequencing; frameworks hold sequencing errors
Summary of the method: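 Galactose-induced (36–48 hours) yeast carrying a synthetic nanobody display library were exposed to 10% biotinylated, detergent-solubilized Sf9 membrane reagent at 4 °C for 1 hour. FACS followed streptavidin microbead enrichment, using low and high (top ~1%) gates for expression (anti-HA) and reagent binding (streptavidin). Colony PCR, MiSeq 2 × 250 sequencing and CDR-length filtering followed. Labels for polyreactivity reflect the gate of origin.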

Sequence | polyreactivity (PSR sort gate)
QVQLGESGGGLVQAGGSLRLSCAASGRTFYINTMGWYRQAPGKEREFVAAISSGGGRTYYADSVKGRFTISRDNAKNTVYLQMNSLKPEDTAVYYCAAYLGGAEDTYRFGYWGQGTQVTVSS | high polyreactivity
QVQLVESGGGLVQAGGSLRLSCAASGRTFFPYGMGWYRQAPGKERELVATISWSGGSTHYADSVKGRFTISRDNAKNTVYLQMNSLKPEDTAVYYCAAGNSLYWYNSGNYWGQGTQVTVSS | low polyreactivity
QVQLVESGGGLVQAGGSLRLSCAASGFIFNWYAMGWYRQAPGKERELVAAITSGGSTNYADSVKGRFTISRDNAKNTVYLQMNSLKTEDTAVYYCAARHWRRYGYWGQGTQVTVSS | high polyreactivity
QVQLVESGGGLVQAGGSLRLSCAASGSIFIGYARGWYRQAPGKERELVAGISWSGGSTYYADSVKGRFSISRDNAKNTVYLQMNSLKPEDTAVYYCNADITLYYFWAWTYGYYYWGQGTQVTVSS | high polyreactivity
QVQLVETGGGLVQAGGSLRLSCAASGFIFSTYAMGWSRQAPGKERELVAAISWSGGRTNYADSVKGRFTISRDHAKNTVYLQMNSLKPEDTAVYYCAVGGERGARIGSNHRGSRYDYWGQGTQVTVSS | high polyreactivity
QVQLVESGGGLVQAGGSLRLSCASSGSNFGYNAMGWYRQAPGKERELVAAILSSDSRTHYADSVKGRFTISRDNAKNTVYFQRNSLKPEDTAVYYCAAVKRRPGHYLYDYWGQGTQVSVSS | low polyreactivity
QVQLVESGGGLVQAGGSLRLSCAATGSIYSYAMGWNRQAPGKERELVAAISRSGGRTYYADSVKGRFTISRDNAKNTVYLQMNSLKPEDTAVYYCAADGYSAKYYPGGDYWGQGTQVTVSS | high polyreactivity
QVQLVESGGGLVQSGGSLRLSCAASGLTFRRNPMGRYRQAPGKERELVATITSGGSTNYADSVKGRFTISRDNAKNTVYLQMNSLKTEDTAVYYCAARTTYITPWAGRYFSWDYDYWGQGTQVTVSS | high polyreactivity
QVQLVESGGGLVQAGGSLRLSCAASGFMFSRYAMGWYRQAAGTERELVAAITSSGGRTYYADSVKGRFTISRDNAKNTVYLQMTSLKPEDTAVYYCNADLGSWYTWFDYWGQGTQVTVSS | high polyreactivity
QVQLVESGGGLVQAGGSLRLSCAASGRTFYGYTMGWYRQAPGKERELVAAIRTSGGSTYADSVKGRFTISRDNAKNTVYLQMNSLKPEDTAVYYCAAPRVVYYGTAPAYRYDYWGQGTQVTVSS | high polyreactivity
QVQLVESGGGLVQAGGSLRLSCAASGFIFDSYAMGWYRQAPGKERELVAAISDGSSTYADSVKGRFTISRDNAKNTVYLQMNSLKPEDTAVYYCAAGVSTWWSTYDYWGQGTQVTVSS | high polyreactivity
QVQLVESGGGLVQAGGSLRLSCAASGSTFARNTMGWYRHAPGKERELVAVITRGDSTYYADSVKGRFTISRDNAKNTVYLQMNSLKPEDTAGYYCNAYFRYAYPSKMDYWVQGTQVTVSS | low polyreactivity
QVQLVESGGGLVQAGGSLRLSCAASGSTFVRYTMGWYRQAPGKERELVAGITGGGSTNYADSVKGRFTISRDNAKNTVYLQMNSLKPEDTAVYYCAADLWWERAYPEYDYWGQGTQVTVSS | low polyreactivity
QVQLVESGGGLVQAGGSLRLSCAASGFTFPYYAMGWYRQAPGKEMELVAVISGSGTRTNYADSVKGRFTISRDNAKNTVYLQMNSLKPEDTEVYYCAAYYTYLHYIYDYWGQGTQVTVSS | high polyreactivity
QVQLVESGGGLVQAGGSLRLSWAASGSTLSLYAMGWYRQAPGKERELVAAITSSGGTYYADSVKGRFTISRDNAKNTVYLQMNSLKPEVTAVYYCNAYAKDARSYGYHRVNYWGQGTQVTVSS | high polyreactivity
QVQLVESGGGLVQAGGSLRLSCAASGSTFYHNVMGWYLQAPGKERELVASIDTGDSTNYADSVKGRFTISRDNAKNTVYLQMNSLKPEDTAVYYCNADSYPALNKRGYDYWGQGTQVTVSS | low polyreactivity
QVQLVESGGGLVQAGGSLRLSCAASGNTFWPYAMGWYRQAPGKERELVAAISWRGSRTYYADSVKGRFTISRDNAKNTVYLQMNSLKPEDTAVYYCAADYKYVGSEYGYWGQGTQVNVSS | low polyreactivity
QVQLVESGGGLVQAGGSLRLNCAASGSTFGRNAKGWYRQAPGKERELVAAISLSTGSTYDADSVKGRFTISRDNAKNTVYLQMNSLKPEDTAVYYCAKEWGHPYHFLYYYWGQGTQVTVSS | high polyreactivity
QVQIVESGGGLVQAGGSLRLSCASSGSTFVPNDMGSYRQAPWKERELVAAISRSGDDTYYADSVKGRFTISRDNAKNTVYFQMNSLIPEDTAVYYCNAAGRPFFLRPLRWELDYWGQGTQVTVSS | low polyreactivity
QVQLVESGGGLVQAGGSLRLSCAASGRIFTRYVMGWYRPAPGKERELVAGINSGGRTNYADSVKGRFTISRDNAKNTVYLQMNSLKQVDTAVYYCAAGKGRPVGGRAYYYWGHGTQVTVSS | high polyreactivity
QVQLVESGGGLVQAGGSLRLSCAASGSTFPPNAMGWYRPAPGKERELVAVISNGGSNTRYADSVKGRFTISRDNAKNTVYLQMNSLKPEDTAVYYCAADYEYSGYGYWGQGTQVTVSS | high polyreactivity
QVQLVESGGGLVQAGGSLRLSCAASGRRFVKYAMGWYRQAPGKERELVAAITKSGSSTYYSDSVKGRFTISRDNAKNTVYLQMNSLKPEDTAVYYCAALTISRSRTGYYWGQGTQVTVSS | low polyreactivity

Sequence | polyreactivity (PSR sort gate)
QVQLVESGGGLVQAGGSLRLTCAASGSIIWAYAKGWYRQAPGKERELVAAISSGGSTYYADSVKGRFTISRDNAKNIVYLQMNCLKPEDTPVFYCAASWSRRYYYWGQGTQVTVSS | high polyreactivity
QVQLVESGGGLVQAGGSLRLSCAASGSTFVNNAMGWYRQAPGKERELVAAIRNTGGRTYYADSVKGRFTISRDNAKNTVYLQMNSLKPEDTAVYYCAALSRVRTLWRMDYWGQGSQVTVSS | high polyreactivity
QVQLVESGGGLVQAGGSLRLSCAPSGRIFTHNVRGWYRQAPGKERELVAAISASGGSTYYADSVKGRFTISRDNAKNTVYLQMNSLKPEDTAVYYCNAEWAVRYPGYDYWGQGTQVTVSS | low polyreactivity
QVQLVESGGGLVQAGGSLRLSCAASGRIFSRYAMGWYRQAPGKERELVATITRRGGSTSYADSVKGRFTISRDNAKNTVYLQMNSLKPEDTAVYYCAAQSFYGIYYGQQDYDYWGQGTQVTVSS | high polyreactivity
QVQLVESGGGLVQAGGSLRLSCAASGGTIAPYAMGWYRQAPGKERELVATISYSGTSTNYADSVKGRFTISRDNAKNTVYLQMNSLKPEDTAVYYCAKRYHQYRWRGWLWGFDYWGQGTQVTVSS | high polyreactivity
QVQLVESGGGLVQAGGSLRLSCASSGRTFARNVMGWYRQAPGKERELVAAIRGSGGSTYYADSLKGRFTISRDNGKNTVYLQMNSLKTEDTAVYYCAADSSYTKRHSPTKLHFDYWGQGTQVTVSS | high polyreactivity
QVQLVESGGGLVQAGGSLRLSCAASGIILYFYDMGWYRQAPGKERELVAVITGGGGSTYYADSVKGRFTISRDNAMNTVYLQMNSLKPEDTAVYYCAALPWFPDEEYDYWGQGTQVTVSS | high polyreactivity
QVQLVESGGGLVQAGGSLSLSCAASGRIFPPYAMGWYRPAPGKERELVAAISVSGSNTYYADSVKGRFTISRYNAKNTVYLQMNSLKPEDTAVYYCNAKRYSPVYYWYDYCGQGTQVTVSS | high polyreactivity
QVQLVESGGGLVQAGGSLRLSCAPSGGTFPVYAMGWYRQAPGKERELVAAISYSGVTTYNADSVKGRFTISRDNAKNTVYLQMNSLKPEVTAVYYCNADWRPWYMFSYDYWGQGTQVTVSS | low polyreactivity
QVQLVESGGGLVQAGGSLRLSCAASGSTFRYNVMGWYRQAPGKERELVATISYSGGSTNYADSVKGRFTISRDNAKNTDYLQMNSLKPEDTAVYYCAARYLYPFYRYWWYDYWGQGTQVTVSS | high polyreactivity
QVQLVESGGGLVQAGGSLRLSCAASGRIFRVNALGWYRQATRKERELVAGITQGDGSTYYADSVKGRFTISRDNAKNTVYLQMNSLKPEDTAVYYCAAEGFYTTGSPYSGGLDYWGQGTQVTVSS | low polyreactivity
QVQLVESGGGLVQAGGSLRLSCAASGNIFYRYAMGWYRQAPGKERELVAAISGNSGNTYYADSVKGRFTISRDIAKNTVYLQMNSLKPEDTAVYYCAAERRAFGHYSWGQGTQVTVSS | high polyreactivity
QVQLVESGGGLVQAGGSLRLSCAASGSIFITYAMGWYRQAPGKERELVAAIRDSGDRTYYADSVKGRFTISRDNAKNTVYLQMNRLKPEETAVYYCNARWQEPLKYDYWGQGTQVTVSS | low polyreactivity
QVQLVESGGGLVQSGGSLRLSCAASGSIYAYYAMGWYRQAPGKERELVAAIRFNSGRTYYADSVKGRFTISRDNAKNTVYLQMKSLKPEDTAVYYCAARDGYVYSHRYDYWGQGTQVTVSS | high polyreactivity
QVQHVESVGGLVQAGGSLRLSCAASGSIFFWYDMGWYRQAPGKERELVASISSGGSTYYADSVKGRFTISRDNAKNTVYLQMNSLKPEDNAVYYCNAKSWSPAKSFSFFRFDYWGQGTQVTVSS | low polyreactivity
QVQLVESGGGLVQAGGSLRLSCAASGSIFTGYAMGWYRQAPGKERELVAAISASGTRTYYADSVKGRFTISRDNAKNTVYLQMNSLKPEDTAVYYCARDSLQVFYPYASDDYWGQGTQVTVSS | low polyreactivity
QVQLVESGGGLVQAGGSLRLSCAASGSIFGWYAMGWYRQAPGKERELVAAISGSGGSTYYADSVKGRFTISRDTAKNTVYLQMNSLKPEDTAVYYCNAYRRVGTSEYWGQGTQVTVSS | high polyreactivity
QVQLVESGGGLVQAGGSLRLSCAASGSIFDPYAMGWYIQAPGKERELDAAITASGSSTYYADSVKGRFTISRDNAKNTVYLQMNSLKPEDTAVYYCAADRANWEYLLSWLGYDYWGQGTQVTVSS | low polyreactivity
QVQLVESGGGLVQAGGSLRLSCAASGFIIFRYAMGWYRQAPGKERELDAAITRSGGSTYYADSVKGRFTISRDNAKNSVYLQMNCLKPEDTAVYYCNASRQCFTYARMDYWGQGTQVTVSS | high polyreactivity
QVQLVESGGGLVQAGGSLRLSCAASGSIFWLYTMGWYRQAPGKERELVATITQSGSTYYADSVKGRFTISRDNAKNTVYLQMNSLKPEDTAVYYCAARVVWGPESDYWGQGTQVTVSS | low polyreactivity
QVQLVESGGGLVQAGGSLRLSCAASGFTFFHYAMGWYRQAPGKERELVAAIDYSAGSTYYADSVKGRFTISRDNAKNTVYLQMNSMKPEDTAVYYCAADARTSRGRRYYYWGQGTQVTVSS | low polyreactivity
